Article PMC11326307 (bioRxiv, 2024)

Key:
Snu23-DHFR = target: T1, Snu23-DHFR (S. cerevisiae, UniProt Q12368 1-194, Cy5-TMP fluorophore bound to the DHFR tag); test: colocalization single molecule spectroscopy
T1 sequence (looked up): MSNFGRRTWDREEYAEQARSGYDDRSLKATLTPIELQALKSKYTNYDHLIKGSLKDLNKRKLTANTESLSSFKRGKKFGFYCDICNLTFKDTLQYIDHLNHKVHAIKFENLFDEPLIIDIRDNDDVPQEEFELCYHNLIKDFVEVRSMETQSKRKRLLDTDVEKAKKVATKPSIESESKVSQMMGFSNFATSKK

Spp381-DHFR = target: T2, Spp381-DHFR (S. cerevisiae, UniProt P38282 1-291, Cy5-TMP fluorophore bound to the DHFR tag); test: colocalization single molecule spectroscopy
T2 sequence (looked up): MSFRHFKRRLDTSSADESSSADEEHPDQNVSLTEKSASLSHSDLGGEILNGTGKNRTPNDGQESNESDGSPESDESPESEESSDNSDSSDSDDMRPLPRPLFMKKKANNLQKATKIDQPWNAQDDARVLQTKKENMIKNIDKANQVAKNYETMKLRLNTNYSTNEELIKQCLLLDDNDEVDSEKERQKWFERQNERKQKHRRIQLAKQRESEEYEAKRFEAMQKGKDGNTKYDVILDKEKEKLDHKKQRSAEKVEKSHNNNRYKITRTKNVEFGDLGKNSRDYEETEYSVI

event pairs (of those arriving together) with simultaneous release (Snu23-DHFR): 77%
event pairs with simultaneous arrival at the pre-mRNA (Snu23-DHFR): 91%
event pairs (of those arriving together) with simultaneous release (Spp381-DHFR): 77%
event pairs with simultaneous arrival at the pre-mRNA (Spp381-DHFR): 91%
B1: Prp38-SNAP (natural protein)
chain: MAVNEFQVESNISPKQLNNQSVSLVIPRLTRDKIHNSMYYKVNLSNESLRGNTMVELLKVMIGAFGTIKGQNGHLHMMVLGGIEFKCILMKLIEIRPNFQQLNFLLNVKNENGFDSKYIIALLLVYARLQYYYLNGNNKNDDDENDLIKLFKVQLYKYSQHYFKLKSFPLQVDCFAHSYNEELCIIHIDELVDWLATQDHIWGIPLGKCQWNKIYNSDEESSSSESESNGDSEDDNDTSSES
modifications: SNAP-Surface 549 dye (SNAP-DY549) on the SNAP tag
